In general, Kd refers to the free concentration of one partner at which half of the binding sites on the other are occupied at equilibrium, for simple one-to-one binding. As a reminder, the koff is the first-order rate constant of dissociation. The kon is the rate constant with which the complex forms.

The assay has as its target recombinant human CD3 (human). The assay can be described thus: SPR, Ab captured by anti-Fc, 37 C. In general terms: SPR reads the build-up and loss of mass on a sensor chip optically.

Chain of recombinant human CD3 (human) (P07766 22-126, chain 1 of 2): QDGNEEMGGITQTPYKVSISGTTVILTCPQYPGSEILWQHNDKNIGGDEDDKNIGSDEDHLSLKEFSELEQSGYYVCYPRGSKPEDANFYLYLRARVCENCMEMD
Chain of recombinant human CD3 (human) (P04234 22-100, chain 2 of 2, further chain): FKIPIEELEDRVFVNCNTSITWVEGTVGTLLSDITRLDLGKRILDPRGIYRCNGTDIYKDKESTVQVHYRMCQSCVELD

B1: GPC3/CtrlxCD3 trispecific antibody (protein, part only; not given: control arm and constant regions, not shown: another chain or arm of the molecule; a dimerising Fc or GST)
VH 1: QVQLVESGGGLVQPGRSLRLSCAASGFTFSNAWMHWVRQAPGKGLEWVAQIKDRANSYNTYYAESVKGRFTISRDDSKNSIYLQMNSLKTEDTAVYYCRYVHYTTYAGSSFSYGVDAWGQGTTVTVSS
VL 1: DIVMTQSPLSLPVTPGEPASISCRSSQPLVHSNRNTYLHWYQQKPGQAPRLLIYKVSNRFSGVPDRFSGSGSGTDFTLKISRVEAEDVGVYYCGQGTQVPYTFGQGTKLEIK
VH 2: QVQLVQSGAEVKKPGASVTVSCKASGYTFTDYEMHWIRQPPGEGLEWIGAIDGPTPDTAYSEKFKGRVTLTADKSTSTAYMELSSLTSEDTAVYYCTRFYSYTYWGQGTLVTVSS
VL 2: DIVMTQSPLSLPVTPGEPASISCRSSQPLVHSNRNTYLHWYQQKPGQAPRLLIYKVSNRFSGVPDRFSGSGSGTDFTLKISRVEAEDVGVYYCGQGTQVPYTFGQGTKLEIK
For the molecule B1, the Kd came to 17.8 nM, the koff is 0.00151 s⁻¹ and the kon came to 85000 M⁻¹ s⁻¹.

Values taken from US20200377595A1.
